Laboratory results from publication PMC5531557, “Crystal structure and kinetic analysis of the class B3 di-zinc metallo-β-lactamase LRA-12 from an Alaskan soil metagenome” (PLoS ONE, 2017).

Columns and labels:
LRA-12 [1] = target: T1, LRA-12 (uncultured bacterium BLR12, UniProt B5L5V5); assay: residual ertapenem hydrolysis, UV absorbance; type: biochemical
T1 construct: gene blaLRA-12; pET28a(+) in E. coli BL21(DE3), N-terminal His tag cut by thrombin; mature enzyme of 269 residues (Gln26-Asn306 in BBL numbering); di-zinc

LRA-12 [2] = target: T1, LRA-12; assay: competition with ceftazidime hydrolysis, UV absorbance; type: biochemical
[3] = test system: CC(=O)OCC1=C(C(=O)O)N2C(=O)[C@@H](NC(=O)Cc3cccs3)[C@H]2SC1; assay: purified protein; type: biochemical, uncultured bacterium BLR12; conditions: 10 mM HEPES, 20 mM NaCl, pH 7.5, room temperature
[4] = test system: CC(C)(O/N=C(\C(=O)N[C@@H]1C(=O)N2C(C(=O)[O-])=C(C[n+]3ccccc3)CS[C@H]12)c1csc(N)n1)C(=O)O; assay: purified protein; type: biochemical, uncultured bacterium BLR12; conditions: 10 mM HEPES, 20 mM NaCl, pH 7.5, room temperature
[5] = test system: CC1(C)S[C@@H]2[C@H](NC(=O)Cc3ccccc3)C(=O)N2[C@H]1C(=O)O; assay: purified protein; type: biochemical, uncultured bacterium BLR12; conditions: 10 mM HEPES, 20 mM NaCl, pH 7.5, room temperature
[6] = test system: CCN1CCN(C(=O)N[C@@H](C(=O)N[C@@H]2C(=O)N3[C@@H]2SC(C)(C)[C@@H]3C(=O)O)c2ccccc2)C(=O)C1=O; assay: purified protein; type: biochemical, uncultured bacterium BLR12; conditions: 10 mM HEPES, 20 mM NaCl, pH 7.5, room temperature
[7] = test system: CO/N=C(\C(=O)N[C@@H]1C(=O)N2C(C(=O)O)=C(COC(C)=O)CS[C@H]12)c1csc(N)n1; assay: purified protein; type: biochemical, uncultured bacterium BLR12; conditions: 10 mM HEPES, 20 mM NaCl, pH 7.5, room temperature
[8] = test system: CO/N=C(\C(=O)N[C@@H]1C(=O)N2C(C(=O)O)=C(COC(N)=O)CS[C@H]12)c1ccco1; assay: purified protein; type: biochemical, uncultured bacterium BLR12; conditions: 10 mM HEPES, 20 mM NaCl, pH 7.5, room temperature
[9] = test system: CO/N=C(\C(=O)N[C@@H]1C(=O)N2C(C(=O)[O-])=C(C[N+]3(C)CCCC3)CS[C@H]12)c1csc(N)n1; assay: purified protein; type: biochemical, uncultured bacterium BLR12; conditions: 10 mM HEPES, 20 mM NaCl, pH 7.5, room temperature
[10] = test system: CO[C@@]1(NC(=O)Cc2cccs2)C(=O)N2C(C(=O)O)=C(COC(N)=O)CS[C@@H]21; assay: purified protein; type: biochemical, uncultured bacterium BLR12; conditions: 10 mM HEPES, 20 mM NaCl, pH 7.5, room temperature
[11] = test system: C[C@@H](O)[C@H]1C(=O)N2C(C(=O)O)=C(SCCN=CN)C[C@H]12; assay: purified protein; type: biochemical, uncultured bacterium BLR12; conditions: 10 mM HEPES, 20 mM NaCl, pH 7.5, room temperature
[12] = test system: C[C@@H](O)[C@H]1C(=O)N2C(C(=O)O)=C(S[C@@H]3CN[C@H](C(=O)N(C)C)C3)[C@H](C)[C@H]12; assay: purified protein; type: biochemical, uncultured bacterium BLR12; conditions: 10 mM HEPES, 20 mM NaCl, pH 7.5, room temperature
[13] = test system: C[C@@H](O)[C@H]1C(=O)N2C(C(=O)O)=C(S[C@@H]3CN[C@H](C(=O)Nc4cccc(C(=O)O)c4)C3)[C@H](C)[C@H]12; assay: purified protein; type: biochemical, uncultured bacterium BLR12; conditions: 10 mM HEPES, 20 mM NaCl, pH 7.5, room temperature

T1 sequence (B5L5V5 entry or part of it): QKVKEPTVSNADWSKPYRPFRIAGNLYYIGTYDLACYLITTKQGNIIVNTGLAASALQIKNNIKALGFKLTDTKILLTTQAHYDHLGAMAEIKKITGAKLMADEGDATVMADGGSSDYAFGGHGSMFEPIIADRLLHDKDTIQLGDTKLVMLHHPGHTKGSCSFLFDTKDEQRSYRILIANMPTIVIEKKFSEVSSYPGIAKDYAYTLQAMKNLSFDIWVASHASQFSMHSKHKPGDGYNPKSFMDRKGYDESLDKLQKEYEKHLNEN

O=C(O)c1cccc(C(=O)O)n1 [DPA, pyridine-2,6-dicarboxylic acid]
IC50 (LRA-12 [1]): 460 µM

O=C(O)CN(CCN(CC(=O)O)CC(=O)O)CC(=O)O [EDTA]
IC50 (LRA-12 [1]): 113 µM

C[C@H]1[C@H](NC(=O)/C(=N\OC(C)(C)C(=O)O)c2csc(N)n2)C(=O)N1S(=O)(=O)O [aztreonam]
Ki (LRA-12 [2]): 146 µM

LRA-12 (uncultured bacterium BLR12)
Km [3]: 11 ± 2 µM
kcat [3]: 18 ± 0.8 s⁻¹
kcat/Km [3]: 1.64e+06 ± 370000 M⁻¹ s⁻¹
Km [4]: 59 ± 8 µM
kcat [4]: 12 ± 0.8 s⁻¹
kcat/Km [4]: 200000 ± 40000 M⁻¹ s⁻¹
Km [5]: 47 ± 4 µM
kcat [5]: 70 ± 2 s⁻¹
kcat/Km [5]: 1.49e+06 ± 150000 M⁻¹ s⁻¹
Km [6]: 83 ± 9 µM
kcat [6]: 74 ± 3 s⁻¹
kcat/Km [6]: 890000 ± 130000 M⁻¹ s⁻¹
Km [7]: 36 ± 4 µM
kcat [7]: 7 ± 0.3 s⁻¹
kcat/Km [7]: 190000 ± 30000 M⁻¹ s⁻¹
Km [8]: 20 ± 3.4 µM
kcat [8]: 16 ± 0.9 s⁻¹
kcat/Km [8]: 800000 ± 190000 M⁻¹ s⁻¹
Km [9]: 93 ± 13 µM
kcat [9]: 15 ± 1.4 s⁻¹
kcat/Km [9]: 160000 ± 40000 M⁻¹ s⁻¹
Km [10]: 4 ± 0.6 µM
kcat [10]: 7 ± 0.4 s⁻¹
kcat/Km [10]: 1.75e+06 ± 320000 M⁻¹ s⁻¹
Km [11]: 39 ± 7 µM
kcat [11]: 66 ± 5 s⁻¹
kcat/Km [11]: 1.69e+06 ± 420000 M⁻¹ s⁻¹
Km [12]: 113 ± 20 µM
kcat [12]: 95 ± 11 s⁻¹
kcat/Km [12]: 840000 ± 230000 M⁻¹ s⁻¹
Km [13]: 43 ± 6 µM
kcat [13]: 57 ± 4 s⁻¹
kcat/Km [13]: 1.33e+06 ± 270000 M⁻¹ s⁻¹
